We go through one molecule from US20220177558A1 (INSERM INSTITUT NATIONAL DE LA SANT ET DE LA RECHERCHE M …, published 2022).

The target of this assay is T1, Ac-Met11-Tau peptide: {N-alpha-acetyl}MEDHAGTYGLG (human).
T1 construct: Synthetic peptide coated on the ELISA plate; The C-terminal cysteine was added only for KLH conjugation of the immunogen; also called N-alpha-acetyl-Met11-Tau peptide; AcMet11-peptide
T1 peptide: Ac-MEDHAGTYGLG
As to the kind of experiment: indirect ELISA on coated peptide, positive control. For orientation: An ELISA detects its analyte on a solid surface through an enzyme-linked reagent.

Where no end group is shown, it is not given here.

B1: 2H2D11 antibody (antibody, IgG2a, V domains shown)
VH: EVRLVESGGGLVQPGGSLRLSCATSGFTFTDYYLSWVRQPPGKAFEWLGFIRNRADGYTTNYSASVKGRFTISRDNSQSILYLQMNTLRVEDSATYYCARDNDHYAMDYWGQGTSVTVSS
VL: DVVMTQTPLSLSVTIGQPASISCKSSQSLLYSNGKTYLNWLQQRPGQAPKHLMYQVSKLDPGIPDRFSGSGSETDFILKISRVEAEDLGIYYCLQGTYYPYTFGGGTKLEIK
notes: also called Mab 2H2D11; monoclonal antibody directed against AcMet11-Tau
B1: the binding result is recorded as “binds”.
